The chains are these.
B1: TPR t1 (parent)
chain: GACCAAUCUGCCCUCAGAGCUCGAGAACAUCUUCGGAUGCAGAGGAGGCAGGCUUCGGUGGCGCGAUAGCGCCAACGUCCUCAACCUCCAAUGCAUCCCACCACAUGAUGAUGCCUGAAGAGCCUUGGUUUUUUG

Variants of B1 are the subject of this data set. Description: polymerase ribozyme fitness, log enrichment relative to wild type (log ratio); higher = more active; in vitro selection for triplet polymerase activity. An outline of the steps:
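After PCR construction and transcription, each subunit's mutant library from a heterodimeric triplet polymerase ribozyme was annealed with a biotinylated primer, the partner subunit and triplets. Incubation was frozen, at −7 °C, and extended constructs were gel-excised, bound to streptavidin beads and amplified by RT-PCR, in one selection round done in triplicate. Fitness is the logarithm of a genotype's enrichment divided by that of the wild type, from inverse-variance-weighted replicate averages of Illumina-sequenced inputs and outputs. The base of the logarithm is 2, and genotypes needed ≥10 input reads and ≥1 read per output.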
On to G39C C115U G120C, for which the “polymerase ribozyme fitness (log ratio)” value was -1.04. With G39C C98A the figure was -5.08; with G39U C101G, -3.29; with G39A G48A C56G G69U A105C, -2.52. The result for A37U U81A C101A G110U reads -5.35; that for G39A C94U, -0.565; that for U38G C82U, -0.857.

With G39C C49U, the “polymerase ribozyme fitness (log ratio)” value is -1.61.

For G39A G51U U129G, the “polymerase ribozyme fitness (log ratio)” value was -5.53. The result for U38G C89A U96A C114G reads -5.44. With G39C C88U G135U the figure was -2.39; with G39C U54G C70A, -3.74; with G39C C56G A111C G128A, -3.6. For the variant G39U C70U A103C C114U A119U G120A U130A, the “polymerase ribozyme fitness (log ratio)” value is -5.71.

For the variant G39U A74G G110C A111G, the “polymerase ribozyme fitness (log ratio)” value was -5.64. The result for G39U G61A A75U U81C C99A G117U reads -7.32; that for G39A C49A C98A U112C, -3.94. With A37U U131C the figure was -0.648; with G39U C49G C64U G117C, -4.42; with U38A U132C, -0.329. The result for G39A A46U reads -1.28; that for G39U C56U C73U, -1.4; that for G39U G77U C89U, -1.38. As for U38C C53U U116A A121G, the “polymerase ribozyme fitness (log ratio)” value was 0.589.

Turning to G39U G45C U87A C114U, the “polymerase ribozyme fitness (log ratio)” value was -6.43. With U38G A43U G48U C88G the figure was -5.48. U38A G42A: the “polymerase ribozyme fitness (log ratio)” value was -2.86. The result for G39U C88U A121G reads 0.804; that for U38A U54G, -0.848.

Turning to U38A G113C, the “polymerase ribozyme fitness (log ratio)” value is -2.81. For A37U U125A, the “polymerase ribozyme fitness (log ratio)” value was -1.35.

Consider G39A A46U U106A, for which the “polymerase ribozyme fitness (log ratio)” value is -2.02. For U38A G39U G61U C89U A111C, the “polymerase ribozyme fitness (log ratio)” value is -3.54.

Regarding G39A C80A C98U U133A, the “polymerase ribozyme fitness (log ratio)” value is -6.34. Take G39A G45C: the “polymerase ribozyme fitness (log ratio)” value is -2.32. With G39C C40A the figure was -3.01; with G39U C62U G117U, -3.18.

With G39U C40U G42A C56U, the “polymerase ribozyme fitness (log ratio)” value is -2.23.

In the case of U38C G42A A118U G122A, the “polymerase ribozyme fitness (log ratio)” value was -3.31.

Regarding G39U C53G C123U, the “polymerase ribozyme fitness (log ratio)” value amounted to 1.06. The result for G39A A46U U78A U126C reads -3.53; that for G39A C56U, -0.755. Consider G39A C73U U106A U109C G113A G117A, for which the “polymerase ribozyme fitness (log ratio)” value was -5.45.

U38A C49U C88U: the “polymerase ribozyme fitness (log ratio)” value was -1.59. With G39U C72G C82G the figure was -2.35; with G39C U55A C56A G63U A121U, -4.47; with G39A C88A, -1.32. For A37U U54A C123U C124G, the “polymerase ribozyme fitness (log ratio)” value is 1.44. For the variant U38G C115G, the “polymerase ribozyme fitness (log ratio)” value is -3.06. The result for G39C C86U reads -2.09; that for A37U U59G C124G, 1.68; that for G39C U78A, -0.87.

As for U38C A90C, the “polymerase ribozyme fitness (log ratio)” value is -1.49. With G39U C123G the figure was 0.0216; with G39U C123U, 0.845. With U38A G48C G63C C85U G110A the figure was -5.19; with G39C C97A, -5.8; with U38A A41C C72U G127U, -4.53.

With U38G C49G, the “polymerase ribozyme fitness (log ratio)” value was -2.14. With U38G C72U C104U the figure was -1.14; with G39U G44U C53G C62A C98U U112A U129C U130A, -5.78. The result for U38G G61U U116C reads -1.78; that for G39A C49A, -0.508.

For G39U G60A C76G, the “polymerase ribozyme fitness (log ratio)” value is -3.27. With G39A C124U, the “polymerase ribozyme fitness (log ratio)” value worked out at 1.26. Regarding U38A A41U G44U G113A, the “polymerase ribozyme fitness (log ratio)” value is -5.6. With G39U C49U C97A C124A G127A the figure was -5.83; with A37U U106C A119G, 0.31; with U38A C101A A119U A121U G122U, -2.88. Turning to U38G A43G, the “polymerase ribozyme fitness (log ratio)” value was -2.91. The result for G39A A43U C72U C73G C115G U126C reads -5.51; that for G39U G51A A118G, -4.52; that for U38C C56U A84G, -1.53. With G39U A68G C123U U133A the figure was -2.96; with G39C C101A, -1.69.

Take G39A C64U A90G G135U: the “polymerase ribozyme fitness (log ratio)” value is -1.27. Regarding G39U C86G C104A, the “polymerase ribozyme fitness (log ratio)” value is -4.01.

Consider G39A C102U A118G, for which the “polymerase ribozyme fitness (log ratio)” value is -2.73. In the case of G39U C49U C56U, the “polymerase ribozyme fitness (log ratio)” value is -1.53. The result for G39A G51U reads -3.49. As to G39U G52U, the “polymerase ribozyme fitness (log ratio)” value is -1.9. With G39U G52A, the “polymerase ribozyme fitness (log ratio)” value is -1.4. The result for G39U C56G C102U reads -2.53.

The record behind these values is the RNAGym collection of RNA variant scans (doi:10.1073/pnas.2313332121).
